# Measurements reported in patent US12077763B2, “RNA-based control of powdery mildew” (Greenlight Biosciences, Inc., priority 2021, dated 2024).
# Test system: E. necator
# Assay: Leaf disc assay, dry inoculum (settling tower), decrease in disease severity / hyphal growth (Example 2)
# Conditions: decrease in disease severity (hyphal growth) relative to untreated control, value ± SE; for % decrease =/− SE TP1: time point 1 (untreated control hyphal growth ≥50%); for % decrease =/− SE TP2: time point 2
molecule,measurement,value
GS1840: dsRNA trigger SEQ ID NO 196; gene target Ubiquitin-conjugating enzyme E2-16 kDa (nucleic acid) TTGACTCTAGTTTTAAATACACATAAATGTTTGCTCAAACTATCTAGAGATTTTGCGTCTTGTAAAAAAATACTATATATGAAATATTATTGTGTACTATTGATGTATGAACTCGATGTGAGGTTTAAAATCTTATTGCTGCCATAGATAATCAAAAAATTATATTAATCCTATCCTTTTGGAACGATTCCTAATAGCAGATGTGTGTTCGTCTCTGTCCTTTGAATGACTCATTTCAGTCCAAATCTTCGTTGCTAATTCATCCACTCATTTCATAGCATATTTTTTTGTCGCTTTAACCGCCTCTTCATTAAATTCATTCCTGTTATTCCTGTATCTATCTGCTAATGCCGTTTCTACCGCATCATCAAGTACCGGCTCGGTCAGCATTTGCTGCGTTGCCATCAAAATATTGATGATTCGAGATGATGGTTTCCAGGCATCTGGTTTGAGAGCACCAATACACATACTACCCTGCTCATCAAAAGTCACATTTGGATGGTAGATACGAGTTTTGAACGATAGTTTTGGTGGCTTAAAAGGATAGTCTGAGGGGAGCGTTAAAAGAAGTTCAAAGTTA,% decrease =/− SE TP1,21 ± 6%
same,% decrease =/− SE TP2,11 ± 10%
GS1842: dsRNA trigger SEQ ID NO 130; gene target AP-1 complex subunit gamma-1 (nucleic acid) GCCAATGCCTTGAGCGTCTGAACAAGACTTCCAGTGAGTGGTCTAAACTTCTCTACTATATTCTCTTCACCTTCTTCATCAGCTTCTATGTCGGCCTCGCAAAGGCTAGTGACAAGTGTCAAGCCACAAAGGAGAACTCCATGATTTCGATCTGAAATAAGTGTTTCTGCTTTTTCGAAGAAATGCTCTTGAAGATCTGGCACTTTCTTGCAAATACGCATAGCACATAGAGCAGCCTTCTTACGAATATATGGGTTTGCTGTGGAAAGGAGATTTTCTATCTCTGGAAAGAGATCTCTTGACATTTCGATTGATGCGATGTTGCCTAGCGTACAGAGGGCTAGTCCGACTATGTATTGATTAGAGTGATTGAGATCGTTCTTTAAGGAGTTTGTAACTAAGGTAAGAACCTCTTGATTTTCGTCTAAAAGCAACATGGTCCCTAAGTAACCAAGGCGTTTGTCGGCGAAACGAGGAGACGCAAGTAATTTAAGGCATTCTATCTGGCCAAAGTGGGTTCTTTCCCCAAGTGTGAAGAGATATAACAACTTTGCAACGTTATTACGTCTGACATTG,% decrease =/− SE TP1,6 ± 7%
GS1843: dsRNA trigger SEQ ID NO 184; gene target Ubiquitin-like protein SMT3 (nucleic acid) ATAAACCTGCCTTAGATACTAAATCAGGAGTTGGCGTTTTATGGGATTCTATTAGAGTTGTAAATTTCAAAGATACTTTGATTGGATTTTCTTAGATTAACCTCGACGAGAATCGATTTTCTAGATTTTTGGCTAAATCATACGAATTCAAATTTTCTTAGTAAATTGGACAATGCGCGCCGTAAACATATCGGGATGAAATTTTTTAATAATAAAATCAATTGAAAATAATAAATTTATATCCTATTTAATCACCGCCAACAAGAAGTTCGTTTTCCTTACCTACCTAGAATTAGTTTTTAGATATCGTTCGATGTTTCGTGAATTTCAAATCCAGATGTTGCCGCCGATTTGTTCTTGATGCACCTCTAGCGTATCTCCATCTGCCATATCGAGAAACTCAGGACTATCAGTTTGTTGAACACGACTCCCTTCAAATAAGAATCGAACAGAAGAAAGTGATTTCCCTTGCCTCTCACAGAACGCGTCCATCAATTTCTTAAGTGGTGTTGTTCGTTTAATTTTGAAGAAGACTTCATTATTGTTATCTGTAACCTTGATATTTAAATGTTCA,% decrease =/− SE TP1,20 ± 5%
same,% decrease =/− SE TP2,16 ± 8%
GS1845: dsRNA trigger SEQ ID NO 191; gene target Singe-stranded TG1-3 DNA-binding protein (nucleic acid) CAGATACTGCCCAAACTACCTTCATAATTTTCCGAGCTACACACCAGAACCTCGAGTATTGACATTACGGAATCATCTCACCATTTAAAAGTTGCGGTTTAACTTAAGCTGTAGCCGCAACAGTTTCAGCTGTCCCAGCTAGTCCTTCTGATTGAAGTTTATCATTAGTAATCCCTTTAGCGATGGCGCCATTAGTACCTTCGGTTGAGTTGCCAACATTAGATACTTCGCCAGCACCATCAGATACATGTGTAGTTAATTCTTCAGAGGTCTTGTCCGGACTATCTATTGCGATCTTTACTGCAATCTCACGACCTTGAACTTCTTTTCCATTCATTTCGGCAACAGCCCTATTTTGAAGTTCATTAGATGCTAAGTTCACAAAGCCAAACCCACGGCCTTTCCGAGGTTCGTTGCGGGCCTGAAGCTTTTTAACCATGAATTTTGGAATAGGACGCAGAGCAATTTTGGCAGATACTGGTTCGTAATCGGCAAATAGTTCCTTTAACTTTTCCTCGGATAAGTCATAAGGAAGATTGGCAACCATAACTTTTGTCTTAGATGGAAC,% decrease =/− SE TP1,23 ± 6%
same,% decrease =/− SE TP2,24 ± 6%
GS1846: dsRNA trigger SEQ ID NO 135; gene target Calcium-transporting ATPase 2 (nucleic acid) AGACCTTCGGGTACTGCTACAACAATTACAGTGACTGTCACAATGAAAATTTGCAGAAATTGCTGACCTTTAACGGTTGGTGTAGCATCATTGTTAGGTAGTCTAGCCAGAAACTCAATGAATAAGACTGTAAATAATAATAGACCAGCTCCTCCTCCAAGTTTAGCTATATACTCTGCTAAATTGTTCAATTTTGACTGTAATGGCGTGATTTCCGGATCTTCACGGAGCGACATTAATGTTTTCCCATAACTAGAGTTTACACCAGTTGAAGTAACTAAAAATGTACCCACACCTTCAGTGACAGTAGCCCCAGACAAAATAAATGGATCTAATTTTTCTAGCTTTTCGTGGTTCGAGATAGCAGCATAAACTTGGTCTGCCGGATGCTTGCGAATAATATCGGACTCGCCAGTTATTTGAGACTCATCACATCTAAGATTATGCCCTCCAATAAAAATTCCATCAACAGGAATCATGTCGCCAGGTTCAAGATGTAAAACATCGCCTACAAGAACATCATAGATGGATATTTCCGAAGTTTTCCCGGAACGAGTCACATTTACAT,% decrease =/− SE TP1,22 ± 5%
GS1848: dsRNA trigger SEQ ID NO 134; gene target ADP-ribosylation factor-like protein 3 (nucleic acid) CACCGCCCATAGCTCCTTCAAAAACGTGTTTGACAAATCCCTCTTTGATTCGTACCACTTCAACGCAATCTTCACGATCTTGCTTATTTGCTAATATCAACAATGGTACACCGTCAATTTCTCCATTGACCAAGACTTCCTCCAGAGCCAATCGACACTCTTCAAGGCGACCCGACTCATCATGCTCCAAATCTCCATCACCAATCTCAGTGCTATCAATGAGGAAAATAATGGCGTGGCATGATCGATAGTAAGATTTCCATAGTTTGCGAAGAGATTCCTGACCACCTACATCCCAAAGCTTAAGGTACATGTCAGGCAGCGTAATAGTGCTCACATTTTGTCCGACTGTAGGTCCCGTATTTATTTTGGGTGCAGGCGCATGAGGCAGGAACAGGAATTTAACTTGTTCGTGAAAAGTTGTCTTGCCGGCGTTATCAAGTCCCAGCAAAAGAACCGAGTATTCTTCTTTGCGCGTTGCGTAGTGGTAGAGACCCTTAACCAAATGATACATGTAGGTTTAGATCTACATAAATGGAGAAAGAAATCTTAATTAGAATGG,% decrease =/− SE TP1,18 ± 8%
same,% decrease =/− SE TP2,7 ± 8%
